Laboratory results published in the supplement of paper PMC10567573.

B1: CDC14A (parent)
chain: GPHPKSKIENGYPLHAPEAYFPYF
B2: PBXIP1 (parent)
chain: LPVETLGPASRMDPESERALQAPH

Variants of: B1
Assay: protein stability index of a GFP-peptide fusion (GPS, HEK-293T) (PSI 1-6); higher = more stable
Details: c terminus: a fixed tail appended
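Note: lentivirally expressed fusions sorted by FACS into six bins by GFP to DsRed ratio, PSI derived from sequencing read proportions per bin multiplied by bin number.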

Variant	protein stability index
A19W	1.87
A19Y	2.35
A19V	1.89
Y20C	2.19
Y20K	2.79
Y20N	2.63
Y20L	3.1
Y20F	1.89
Y20W	2.19
Y20G	3.25
Y20Q	2.55
Y20A	2.76
Y20S	2.55
Y20M	2.71
Y20E	2.76
Y20D	3.29
Y20H	2.71
Y20T	2.84
Y20I	2.57
Y20R	2.44
Y20V	2.55
P22R	2.5
P22L	2.38

Variant	protein stability index
P22E	2.22
P22G	1.8
P22H	1.6
P22M	2.76
P22Q	2.47
P22K	2.67
P22W	2.54
P22T	1.64
P22I	3.32
P22A	1.61
P22D	2.73
P22S	1.98
P22C	2.9
P22N	1.99
P22V	2.19
Y23E	3.4
Y23A	2.93
Y23V	2.07
Y23R	2.97
Y23H	2.97
Y23L	1.95
Y23M	2.32
Y23F	2.23

Variant	protein stability index
Y23W	1.91
Y23N	3.28
Y23C	2.77
Y23G	3.21
Y23T	3
Y23K	3.13
Y23Q	3.24
Y23D	3.92
Y23S	3.11
Y23I	2.4
F24N	2.62
F24R	2.44
F24Y	2.6
F24D	3.37
F24V	2.75
F24L	2.51
F24H	3.12
F24E	3.61
F24K	3.4
F24S	2.38
F24P	3.08
F24C	2.66
F24M	2.23

Variant	protein stability index
F24I	2.92
F24G	3.09
F24T	3.41
F24Q	2.6
F24W	1.89
F24A	3.43
F21L	2.17
F21D	3.55
F21H	2.47
F21C	2.92
F21K	3.05
F21Q	2.85
F21I	2.17
F21N	2.91
F21M	2.69
F21V	2.9
F21G	2.8
F21W	2.71
F21S	2.96
F21Y	2.44
F21R	2.94
F21A	3

Variants of: B2
Assay: as above
Details: c terminus: a fixed tail appended

Variant	protein stability index
P2T	4.36
P2Q	4.47
P2H	4.71
P2M	3.04
P2V	3.33
P2F	3.42
P2I	3.21
P2W	1.53
P2R	4.05
P2D	5
P2E	3.99
P2C	4.42
P2L	3.37
P2A	4.24
P2G	4.98
P2Y	3.13
P2N	4.6
P2K	3.95
P2S	4.4
E4G	5.03
E4L	3.49
E4D	5.71
E4S	4.94
E4A	5.07
E4R	5.09
E4W	3.71

Variant	protein stability index
E4H	4.79
E4T	5.18
E4P	5.25
E4V	4.62
E4M	4.74
E4F	3.94
E4Y	4.22
E4N	4.53
E4K	4.99
E4C	4.99
E4I	4.98
E4Q	4.46
V3A	4.73
V3G	4.78
V3F	4.88
V3L	4.63
V3D	5.5
V3K	5.38
V3C	4.61
V3H	5.34
V3M	4.74
V3S	4.83
V3Y	5.04
V3P	5.25
V3I	4.92
V3W	4.55

Variant	protein stability index
V3Q	5.07
V3E	5.36
V3N	5.42
V3R	4.27
V3T	5.56
L1K	5.15
L1I	4.42
L1C	3.66
L1T	4.64
L1E	4.68
L1P	5.09
L1A	5.48
L1N	5.38
L1V	4.65
L1M	4.43
L1Y	5.17
L1H	4.89
L1G	5.38
L1R	4.72
L1F	4.61
L1W	5.13
L1S	5.25
L1Q	5.33
L1D	5.07
